Experimental data reported in PMC12229607.

Biological target: human Fc gamma receptor FcγRIIIa, V158 allotype (human)
Assay: ELISA

Chain of human Fc gamma receptor FcγRIIIa, V158 allotype (human) (P08637 17-208): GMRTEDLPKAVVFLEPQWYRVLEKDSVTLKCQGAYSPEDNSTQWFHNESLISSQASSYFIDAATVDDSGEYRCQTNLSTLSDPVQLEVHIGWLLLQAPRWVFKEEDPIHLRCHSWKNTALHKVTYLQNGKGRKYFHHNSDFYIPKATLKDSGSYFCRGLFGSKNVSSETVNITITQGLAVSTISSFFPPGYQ

EC50 [nM]	Substance
28.5	G2-hinge-Fc (E. coli-derived human IgG1 hinge-Fc bearing the G2 glycoform) (domain or fragment)
5.4	commercial trastuzumab (antibody)
